The values that follow are results of earlier work, collected in PMC8690575.

As usually defined, the Kd is the equilibrium constant for the complex coming apart.

This data set addresses Rhodopsin (Mus musculus) (UniProt P15409).

As for Arrestin-1 (from UniProt P20443), the Kd is 150 µM.
